From article PMC11851098 (Nucleic Acids Research, 2025)

T1: Suv3 helicase (UniProt Q8IYB8 23-786, Alexa 647 label (site not stated) in the MST assay)
T1 sequence (looked up): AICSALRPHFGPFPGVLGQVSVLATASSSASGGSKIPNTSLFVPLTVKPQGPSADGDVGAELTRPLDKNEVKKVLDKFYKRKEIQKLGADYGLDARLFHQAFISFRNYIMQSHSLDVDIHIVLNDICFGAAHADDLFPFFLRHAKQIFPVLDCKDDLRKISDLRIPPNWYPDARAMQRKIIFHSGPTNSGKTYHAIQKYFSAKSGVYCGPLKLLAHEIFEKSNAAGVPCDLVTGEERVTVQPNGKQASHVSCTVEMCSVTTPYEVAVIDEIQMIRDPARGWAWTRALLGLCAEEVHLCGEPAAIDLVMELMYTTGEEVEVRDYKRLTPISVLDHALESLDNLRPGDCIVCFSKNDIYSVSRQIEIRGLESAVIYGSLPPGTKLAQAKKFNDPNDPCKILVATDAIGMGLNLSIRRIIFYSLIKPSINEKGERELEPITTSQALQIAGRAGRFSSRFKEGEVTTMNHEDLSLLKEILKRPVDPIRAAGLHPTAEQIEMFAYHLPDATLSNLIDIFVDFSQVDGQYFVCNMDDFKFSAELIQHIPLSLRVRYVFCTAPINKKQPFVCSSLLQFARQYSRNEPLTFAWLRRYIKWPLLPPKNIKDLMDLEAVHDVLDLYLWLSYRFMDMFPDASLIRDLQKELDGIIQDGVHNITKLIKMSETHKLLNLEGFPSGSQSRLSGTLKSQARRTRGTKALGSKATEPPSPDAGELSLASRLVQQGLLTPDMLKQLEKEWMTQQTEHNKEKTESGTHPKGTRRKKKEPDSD


Legend:
Suv3 helicase = molecular target: T1, Suv3 helicase; experiment: MST
SEC = molecular target: the molecule itself; experiment: SEC
SAXS = molecular target: the molecule itself; experiment: SAXS

| Kd (Suv3 helicase) [nM] | Binder | stoichiometry N (SEC) | stoichiometry N (SAXS) |
| --- | --- | --- | --- |
| 297 ± 80 | human polynucleotide phosphorylase (hPNPase), wild type, residues 46-783 (enzyme, UniProt Q8TCS8 46-783, looked up) AVAVDLGNRKLEISSGKLARFADGSAVVQSGDTAVMVTAVSKTKPSPSQFMPLVVDYRQKAAAAGRIPTNYLRREIGTSDKEILTSRIIDRSIRPLFPAGYFYDTQVLCNLLAVDGVNEPDVLAINGASVALSLSDIPWNGPVGAVRIGIIDGEYVVNPTRKEMSSSTLNLVVAGAPKSQIVMLEASAENILQQDFCHAIKVGVKYTQQIIQGIQQLVKETGVTKRTPQKLFTPSPEIVKYTHKLAMERLYAVFTDYEHDKVSRDEAVNKIRLDTEEQLKEKFPEADPYEIIESFNVVAKEVFRSIVLNEYKRCDGRDLTSLRNVSCEVDMFKTLHGSALFQRGQTQVLCTVTFDSLESGIKSDQVITAINGIKDKNFMLHYEFPPYATNEIGKVTGLNRRELGHGALAEKALYPVIPRDFPFTIRVTSEVLESNGSSSMASACGGSLALMDSGVPISSAVAGVAIGLVTKTDPEKGEIEDYRLLTDILGIEDYNGDMDFKIAGTNKGITALQADIKLPGIPIKIVMEAIQQASVAKKEILQIMNKTISKPRASRKENGPVVETVQVPLSKRAKFVGPGGYNLKKLQAETGVTISQVDEETFSVFAPTPSAMHEARDFITEICKDDQEQQLEFGAVYTATITEIRDTGVMVKLYPNMTAVLLHNTQLDQRKIKHPTALGLEVGQEIQVKYFGRDPADGRMRLSRKVLQSPATTVVRTLNDRSSIVMGEPISQSSSNSQ | 3 | – |
| – | hPNPase D713Y-S484A double mutant, residues 46-783 (enzyme, human, UniProt Q8TCS8 46-783, looked up) AVAVDLGNRKLEISSGKLARFADGSAVVQSGDTAVMVTAVSKTKPSPSQFMPLVVDYRQKAAAAGRIPTNYLRREIGTSDKEILTSRIIDRSIRPLFPAGYFYDTQVLCNLLAVDGVNEPDVLAINGASVALSLSDIPWNGPVGAVRIGIIDGEYVVNPTRKEMSSSTLNLVVAGAPKSQIVMLEASAENILQQDFCHAIKVGVKYTQQIIQGIQQLVKETGVTKRTPQKLFTPSPEIVKYTHKLAMERLYAVFTDYEHDKVSRDEAVNKIRLDTEEQLKEKFPEADPYEIIESFNVVAKEVFRSIVLNEYKRCDGRDLTSLRNVSCEVDMFKTLHGSALFQRGQTQVLCTVTFDSLESGIKSDQVITAINGIKDKNFMLHYEFPPYATNEIGKVTGLNRRELGHGALAEKALYPVIPRDFPFTIRVTSEVLESNGSSAMASACGGSLALMDSGVPISSAVAGVAIGLVTKTDPEKGEIEDYRLLTDILGIEDYNGDMDFKIAGTNKGITALQADIKLPGIPIKIVMEAIQQASVAKKEILQIMNKTISKPRASRKENGPVVETVQVPLSKRAKFVGPGGYNLKKLQAETGVTISQVDEETFSVFAPTPSAMHEARDFITEICKDDQEQQLEFGAVYTATITEIRDTGVMVKLYPNMTAVLLHNTQLYQRKIKHPTALGLEVGQEIQVKYFGRDPADGRMRLSRKVLQSPATTVVRTLNDRSSIVMGEPISQSSSNSQ | 3 | – |
| – | hPNPase G499R-S484A double mutant, residues 46-783 (enzyme, human, UniProt Q8TCS8 46-783, looked up) AVAVDLGNRKLEISSGKLARFADGSAVVQSGDTAVMVTAVSKTKPSPSQFMPLVVDYRQKAAAAGRIPTNYLRREIGTSDKEILTSRIIDRSIRPLFPAGYFYDTQVLCNLLAVDGVNEPDVLAINGASVALSLSDIPWNGPVGAVRIGIIDGEYVVNPTRKEMSSSTLNLVVAGAPKSQIVMLEASAENILQQDFCHAIKVGVKYTQQIIQGIQQLVKETGVTKRTPQKLFTPSPEIVKYTHKLAMERLYAVFTDYEHDKVSRDEAVNKIRLDTEEQLKEKFPEADPYEIIESFNVVAKEVFRSIVLNEYKRCDGRDLTSLRNVSCEVDMFKTLHGSALFQRGQTQVLCTVTFDSLESGIKSDQVITAINGIKDKNFMLHYEFPPYATNEIGKVTGLNRRELGHGALAEKALYPVIPRDFPFTIRVTSEVLESNGSSAMASACGGSLALMDSRVPISSAVAGVAIGLVTKTDPEKGEIEDYRLLTDILGIEDYNGDMDFKIAGTNKGITALQADIKLPGIPIKIVMEAIQQASVAKKEILQIMNKTISKPRASRKENGPVVETVQVPLSKRAKFVGPGGYNLKKLQAETGVTISQVDEETFSVFAPTPSAMHEARDFITEICKDDQEQQLEFGAVYTATITEIRDTGVMVKLYPNMTAVLLHNTQLDQRKIKHPTALGLEVGQEIQVKYFGRDPADGRMRLSRKVLQSPATTVVRTLNDRSSIVMGEPISQSSSNSQ | 3 | – |
| – | hPNPase S484A mutant (inactive) (enzyme, human, UniProt Q8TCS8 46-783, looked up) AVAVDLGNRKLEISSGKLARFADGSAVVQSGDTAVMVTAVSKTKPSPSQFMPLVVDYRQKAAAAGRIPTNYLRREIGTSDKEILTSRIIDRSIRPLFPAGYFYDTQVLCNLLAVDGVNEPDVLAINGASVALSLSDIPWNGPVGAVRIGIIDGEYVVNPTRKEMSSSTLNLVVAGAPKSQIVMLEASAENILQQDFCHAIKVGVKYTQQIIQGIQQLVKETGVTKRTPQKLFTPSPEIVKYTHKLAMERLYAVFTDYEHDKVSRDEAVNKIRLDTEEQLKEKFPEADPYEIIESFNVVAKEVFRSIVLNEYKRCDGRDLTSLRNVSCEVDMFKTLHGSALFQRGQTQVLCTVTFDSLESGIKSDQVITAINGIKDKNFMLHYEFPPYATNEIGKVTGLNRRELGHGALAEKALYPVIPRDFPFTIRVTSEVLESNGSSAMASACGGSLALMDSGVPISSAVAGVAIGLVTKTDPEKGEIEDYRLLTDILGIEDYNGDMDFKIAGTNKGITALQADIKLPGIPIKIVMEAIQQASVAKKEILQIMNKTISKPRASRKENGPVVETVQVPLSKRAKFVGPGGYNLKKLQAETGVTISQVDEETFSVFAPTPSAMHEARDFITEICKDDQEQQLEFGAVYTATITEIRDTGVMVKLYPNMTAVLLHNTQLDQRKIKHPTALGLEVGQEIQVKYFGRDPADGRMRLSRKVLQSPATTVVRTLNDRSSIVMGEPISQSSSNSQ | – | 3 |
| – | hPNPase P467S-S484A double mutant, residues 46-783 (enzyme, human, UniProt Q8TCS8 46-783, looked up) AVAVDLGNRKLEISSGKLARFADGSAVVQSGDTAVMVTAVSKTKPSPSQFMPLVVDYRQKAAAAGRIPTNYLRREIGTSDKEILTSRIIDRSIRPLFPAGYFYDTQVLCNLLAVDGVNEPDVLAINGASVALSLSDIPWNGPVGAVRIGIIDGEYVVNPTRKEMSSSTLNLVVAGAPKSQIVMLEASAENILQQDFCHAIKVGVKYTQQIIQGIQQLVKETGVTKRTPQKLFTPSPEIVKYTHKLAMERLYAVFTDYEHDKVSRDEAVNKIRLDTEEQLKEKFPEADPYEIIESFNVVAKEVFRSIVLNEYKRCDGRDLTSLRNVSCEVDMFKTLHGSALFQRGQTQVLCTVTFDSLESGIKSDQVITAINGIKDKNFMLHYEFPPYATNEIGKVTGLNRRELGHGALAEKALYPVIPRDFSFTIRVTSEVLESNGSSAMASACGGSLALMDSGVPISSAVAGVAIGLVTKTDPEKGEIEDYRLLTDILGIEDYNGDMDFKIAGTNKGITALQADIKLPGIPIKIVMEAIQQASVAKKEILQIMNKTISKPRASRKENGPVVETVQVPLSKRAKFVGPGGYNLKKLQAETGVTISQVDEETFSVFAPTPSAMHEARDFITEICKDDQEQQLEFGAVYTATITEIRDTGVMVKLYPNMTAVLLHNTQLDQRKIKHPTALGLEVGQEIQVKYFGRDPADGRMRLSRKVLQSPATTVVRTLNDRSSIVMGEPISQSSSNSQ | 3 | – |
| 474 ± 70 | hPNPase G499R mutant, residues 46-783 (enzyme, human, UniProt Q8TCS8 46-783, looked up) AVAVDLGNRKLEISSGKLARFADGSAVVQSGDTAVMVTAVSKTKPSPSQFMPLVVDYRQKAAAAGRIPTNYLRREIGTSDKEILTSRIIDRSIRPLFPAGYFYDTQVLCNLLAVDGVNEPDVLAINGASVALSLSDIPWNGPVGAVRIGIIDGEYVVNPTRKEMSSSTLNLVVAGAPKSQIVMLEASAENILQQDFCHAIKVGVKYTQQIIQGIQQLVKETGVTKRTPQKLFTPSPEIVKYTHKLAMERLYAVFTDYEHDKVSRDEAVNKIRLDTEEQLKEKFPEADPYEIIESFNVVAKEVFRSIVLNEYKRCDGRDLTSLRNVSCEVDMFKTLHGSALFQRGQTQVLCTVTFDSLESGIKSDQVITAINGIKDKNFMLHYEFPPYATNEIGKVTGLNRRELGHGALAEKALYPVIPRDFPFTIRVTSEVLESNGSSSMASACGGSLALMDSRVPISSAVAGVAIGLVTKTDPEKGEIEDYRLLTDILGIEDYNGDMDFKIAGTNKGITALQADIKLPGIPIKIVMEAIQQASVAKKEILQIMNKTISKPRASRKENGPVVETVQVPLSKRAKFVGPGGYNLKKLQAETGVTISQVDEETFSVFAPTPSAMHEARDFITEICKDDQEQQLEFGAVYTATITEIRDTGVMVKLYPNMTAVLLHNTQLDQRKIKHPTALGLEVGQEIQVKYFGRDPADGRMRLSRKVLQSPATTVVRTLNDRSSIVMGEPISQSSSNSQ | – | 3 |
| 3890 ± 545 | hPNPase D713Y mutant, residues 46-783 (enzyme, human, UniProt Q8TCS8 46-783, looked up) AVAVDLGNRKLEISSGKLARFADGSAVVQSGDTAVMVTAVSKTKPSPSQFMPLVVDYRQKAAAAGRIPTNYLRREIGTSDKEILTSRIIDRSIRPLFPAGYFYDTQVLCNLLAVDGVNEPDVLAINGASVALSLSDIPWNGPVGAVRIGIIDGEYVVNPTRKEMSSSTLNLVVAGAPKSQIVMLEASAENILQQDFCHAIKVGVKYTQQIIQGIQQLVKETGVTKRTPQKLFTPSPEIVKYTHKLAMERLYAVFTDYEHDKVSRDEAVNKIRLDTEEQLKEKFPEADPYEIIESFNVVAKEVFRSIVLNEYKRCDGRDLTSLRNVSCEVDMFKTLHGSALFQRGQTQVLCTVTFDSLESGIKSDQVITAINGIKDKNFMLHYEFPPYATNEIGKVTGLNRRELGHGALAEKALYPVIPRDFPFTIRVTSEVLESNGSSSMASACGGSLALMDSGVPISSAVAGVAIGLVTKTDPEKGEIEDYRLLTDILGIEDYNGDMDFKIAGTNKGITALQADIKLPGIPIKIVMEAIQQASVAKKEILQIMNKTISKPRASRKENGPVVETVQVPLSKRAKFVGPGGYNLKKLQAETGVTISQVDEETFSVFAPTPSAMHEARDFITEICKDDQEQQLEFGAVYTATITEIRDTGVMVKLYPNMTAVLLHNTQLYQRKIKHPTALGLEVGQEIQVKYFGRDPADGRMRLSRKVLQSPATTVVRTLNDRSSIVMGEPISQSSSNSQ | – | 3 |
